According to patent US20140274782A1, “AFFINITY REAGENTS AND METHODS FOR DETECTION, PURIFICATION, AND PROTEOMIC ANALYSIS OF METHYLATED PROTEINS” (The Board of Trustees of the Leland Stanford Junior …, priority 2013, published 2014):

B1: RBM39 (protein, UniProt Q14498 2-530, looked up)
RNA-binding protein 39: ADDIDIEAMLEAPYKKDENKLSSANGHEERSKKRKKSKSRSRSHERKRSKSKERKRSRDRERKKSKSRERKRSRSKERRRSRSRSRDRRFRGRYRSPYSGPKFNSAIRGKIGLPHSIKLSRRRSRSKSPFRKDKSPVREPIDNLTPEERDARTVFCMQLAARIRPRDLEEFFSTVGKVRDVRMISDRNSRRSKGIAYVEFVDVSSVPLAIGLTGQRVLGVPIIVQASQAEKNRAAAMANNLQKGSAGPMRLYVGSLHFNITEDMLRGIFEPFGRIESIQLMMDSETGRSKGYGFITFSDSECAKKALEQLNGFELAGRPMKVGHVTERTDASSASSFLDSDELERTGIDLGTTGRLQLMARLAEGTGLQIPPAAQQALQMSGSLAFGAVAEFSFVIDLQTRLSQQTEASALAAAASVQPLATQCFQLSNMFNPQTEEEVGWDTEIKDDVIEECNKHGGVIHIYVDKNSAQGNVYVKCPSIAAAIAAVNALHGRWFAGKMITAAYVPLPTYHNLFPDSMTATQLLVPSRR
B2: DHX36 (protein, UniProt Q9H2U1 1-1008, looked up)
ATP-dependent DNA/RNA …: MSYDYHQNWGRDGGPRSSGGGYGGGPAGGHGGNRGSGGGGGGGGGGRGGRGRHPGHLKGREIGMWYAKKQGQKNKEAERQERAVVHMDERREEQIVQLLNSVQAKNDKESEAQISWFAPEDHGYGTEVSTKNTPCSENKLDIQEKKLINQEKKMFRIRNRSYIDRDSEYLLQENEPDGTLDQKLLEDLQKKKNDLRYIEMQHFREKLPSYGMQKELVNLIDNHQVTVISGETGCGKTTQVTQFILDNYIERGKGSACRIVCTQPRRISAISVAERVAAERAESCGSGNSTGYQIRLQSRLPRKQGSILYCTTGIILQWLQSDPYLSSVSHIVLDEIHERNLQSDVLMTVVKDLLNFRSDLKVILMSATLNAEKFSEYFGNCPMIHIPGFTFPVVEYLLEDVIEKIRYVPEQKEHRSQFKRGFMQGHVNRQEKEEKEAIYKERWPDYVRELRRRYSASTVDVIEMMEDDKVDLNLIVALIRYIVLEEEDGAILVFLPGWDNISTLHDLLMSQVMFKSDKFLIIPLHSLMPTVNQTQVFKRTPPGVRKIVIATNIAETSITIDDVVYVIDGGKIKETHFDTQNNISTMSAEWVSKANAKQRKGRAGRVQPGHCYHLYNGLRASLLDDYQLPEILRTPLEELCLQIKILRLGGIAYFLSRLMDPPSNEAVLLSIRHLMELNALDKQEELTPLGVHLARLPVEPHIGKMILFGALFCCLDPVLTIAASLSFKDPFVIPLGKEKIADARRKELAKDTRSDHLTVVNAFEGWEEARRRGFRYEKDYCWEYFLSSNTLQMLHNMKGQFAEHLLGAGFVSSRNPKDPESNINSDNEKIIKAVICAGLYPKVAKIRLNLGKKRKMVKVYTKTDGLVAVHPKSVNVEQTDFHYNWLIYHLKMRTSSIYLYDCTEVSPYCLLFFGGDISIQKDNDQETIAVDEWIVFQSPARIAHLVKELRKELDILLQEKIESPHPVDWNDTKSRDCAVLSAIIDLIKTQEKATPRNFPPRFQDGYYS
B3: IARS (protein, UniProt P41252 1-1262, looked up)
Isoleucine--tRNA ligase, …: MLQQVPENINFPAEEEKILEFWTEFNCFQECLKQSKHKPKFTFYDGPPFATGLPHYGHILAGTIKDIVTRYAHQSGFHVDRRFGWDCHGLPVEYEIDKTLGIRGPEDVAKMGITEYNNQCRAIVMRYSAEWKSTVSRLGRWIDFDNDYKTLYPQFMESVWWVFKQLYDKGLVYRGVKVMPFSTACNTPLSNFESHQNYKDVQDPSVFVTFPLEEDETVSLVAWTTTPWTLPSNLAVCVNPEMQYVKIKDVARGRLLILMEARLSALYKLESDYEILERFPGAYLKGKKYRPLFDYFLKCKENGAFTVLVDNYVKEEEGTGVVHQAPYFGAEDYRVCMDFNIIRKDSLPVCPVDASGCFTTEVTDFAGQYVKDADKSIIRTLKEQGRLLVATTFTHSYPFCWRSDTPLIYKAVPSWFVRVENMVDQLLRNNDLCYWVPELVREKRFGNWLKDARDWTISRNRYWGTPIPLWVSDDFEEVVCIGSVAELEELSGAKISDLHRESVDHLTIPSRCGKGSLHRISEVFDCWFESGSMPYAQVHYPFENKREFEDAFPADFIAEGIDQTRGWFYTLLVLATALFGQPPFKNVIVNGLVLASDGQKMSKRKKNYPDPVSIIQKYGADALRLYLINSPVVRAENLRFKEEGVRDVLKDVLLPWYNAYRFLIQNVLRLQKEEEIEFLYNENTVRESPNITDRWILSFMQSLIGFFETEMAAYRLYTVVPRLVKFVDILTNWYVRMNRRRLKGENGMEDCVMALETLFSVLLSLCRLMAPYTPFLTELMYQNLKVLIDPVSVQDKDTLSIHYLMLPRVREELIDKKTESAVSQMQSVIELGRVIRDRKTIPIKYPLKEIVVIHQDPEALKDIKSLEKYIIEELNVRKVTLSTDKNKYGIRLRAEPDHMVLGKRLKGAFKAVMTSIKQLSSEELEQFQKTGTIVVEGHELHDEDIRLMYTFDQATGGTAQFEAHSDAQALVLLDVTPDQSMVDEGMAREVINRIQKLRKKCNLVPTDEITVYYKAKSEGTYLNSVIESHTEFIFTTIKAPLKPYPVSPSDKVLIQEKTQLKGSELEITLTRGSSLPGPACAYVNLNICANGSEQGGVLLLENPKGDNRLDLLKLKSVVTSIFGVKNTELAVFHDETEIQNQTDLLSLSGKTLCVTAGSAPSLINSSSTLLCQYINLQLLNAKPQECLMGTVGTLLLENPLGQNGLTHQGLLYEAAKVFGLRSRKLKLFLNETQTQEITEDIPVKTLNMKTVYVSVLPTTADF

Key:
G9a and GLP = biological target: T1, G9a and GLP (Homo sapiens, UniProt Q96KQ7+Q9H9B1); experiment: Triple SILAC pull-down after UNC0638 treatment of 293T cells, DMSO/UNC0638 ratio of protein captured by 3×MBT; assay type: cell-based; set-up: endogenous in cells; host or cells: HEK 293T; settings: all values in log base 2; for Relative to UNC0638 UNC Heavy / Relative to UNC0638 UNC Light: SILAC ratio DMSO relative to UNC0638, pull-down with 3xMBT; for Relative to UNC0638 UNC Heavy: UNC0638 in heavy SILAC media; for Relative to UNC0638 UNC Light: UNC0638 in light SILAC media; for Relative to UNC0638 Average: average of UNC Light and UNC Heavy experiments;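 on all read-outs here: mass spectrometry (Q-Exactive) SILAC quantitation, DMSO/UNC0638 ratio computed after subtracting 3×MBTD355N mutant pull-down background, only proteins with at least twofold 3×MBT over mutant signal considered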
T1 sequence (Q96KQ7 2-1210 limits assumed): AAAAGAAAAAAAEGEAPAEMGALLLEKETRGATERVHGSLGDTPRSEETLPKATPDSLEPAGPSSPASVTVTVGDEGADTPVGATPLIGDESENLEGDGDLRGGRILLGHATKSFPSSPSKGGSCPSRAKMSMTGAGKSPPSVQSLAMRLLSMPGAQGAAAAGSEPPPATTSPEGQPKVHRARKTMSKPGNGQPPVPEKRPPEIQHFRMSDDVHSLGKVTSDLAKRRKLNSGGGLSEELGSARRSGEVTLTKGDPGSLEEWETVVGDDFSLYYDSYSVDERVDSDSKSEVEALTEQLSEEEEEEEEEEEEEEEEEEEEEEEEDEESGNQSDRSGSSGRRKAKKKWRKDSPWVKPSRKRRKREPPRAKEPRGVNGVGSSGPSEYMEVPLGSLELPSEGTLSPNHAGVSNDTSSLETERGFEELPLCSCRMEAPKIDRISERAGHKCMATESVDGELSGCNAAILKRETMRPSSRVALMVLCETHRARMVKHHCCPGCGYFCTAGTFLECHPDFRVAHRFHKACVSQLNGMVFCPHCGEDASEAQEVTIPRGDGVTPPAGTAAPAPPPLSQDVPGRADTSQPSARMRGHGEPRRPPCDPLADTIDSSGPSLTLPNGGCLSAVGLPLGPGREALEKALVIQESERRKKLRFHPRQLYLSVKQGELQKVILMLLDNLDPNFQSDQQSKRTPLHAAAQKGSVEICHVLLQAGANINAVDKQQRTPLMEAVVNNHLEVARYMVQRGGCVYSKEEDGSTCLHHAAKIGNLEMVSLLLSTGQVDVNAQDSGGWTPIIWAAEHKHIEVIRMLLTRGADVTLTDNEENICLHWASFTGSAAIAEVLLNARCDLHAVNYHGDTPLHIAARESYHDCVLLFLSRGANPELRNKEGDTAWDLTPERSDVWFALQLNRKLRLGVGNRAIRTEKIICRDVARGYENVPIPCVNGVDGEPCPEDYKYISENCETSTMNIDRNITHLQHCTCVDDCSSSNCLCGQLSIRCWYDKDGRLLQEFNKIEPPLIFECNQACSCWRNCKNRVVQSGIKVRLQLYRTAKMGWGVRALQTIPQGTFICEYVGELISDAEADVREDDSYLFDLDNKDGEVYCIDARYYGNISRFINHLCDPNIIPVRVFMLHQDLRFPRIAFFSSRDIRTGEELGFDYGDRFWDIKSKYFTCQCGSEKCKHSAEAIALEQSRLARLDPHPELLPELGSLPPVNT
T1 sequence (Q9H9B1 2-1298 limits assumed): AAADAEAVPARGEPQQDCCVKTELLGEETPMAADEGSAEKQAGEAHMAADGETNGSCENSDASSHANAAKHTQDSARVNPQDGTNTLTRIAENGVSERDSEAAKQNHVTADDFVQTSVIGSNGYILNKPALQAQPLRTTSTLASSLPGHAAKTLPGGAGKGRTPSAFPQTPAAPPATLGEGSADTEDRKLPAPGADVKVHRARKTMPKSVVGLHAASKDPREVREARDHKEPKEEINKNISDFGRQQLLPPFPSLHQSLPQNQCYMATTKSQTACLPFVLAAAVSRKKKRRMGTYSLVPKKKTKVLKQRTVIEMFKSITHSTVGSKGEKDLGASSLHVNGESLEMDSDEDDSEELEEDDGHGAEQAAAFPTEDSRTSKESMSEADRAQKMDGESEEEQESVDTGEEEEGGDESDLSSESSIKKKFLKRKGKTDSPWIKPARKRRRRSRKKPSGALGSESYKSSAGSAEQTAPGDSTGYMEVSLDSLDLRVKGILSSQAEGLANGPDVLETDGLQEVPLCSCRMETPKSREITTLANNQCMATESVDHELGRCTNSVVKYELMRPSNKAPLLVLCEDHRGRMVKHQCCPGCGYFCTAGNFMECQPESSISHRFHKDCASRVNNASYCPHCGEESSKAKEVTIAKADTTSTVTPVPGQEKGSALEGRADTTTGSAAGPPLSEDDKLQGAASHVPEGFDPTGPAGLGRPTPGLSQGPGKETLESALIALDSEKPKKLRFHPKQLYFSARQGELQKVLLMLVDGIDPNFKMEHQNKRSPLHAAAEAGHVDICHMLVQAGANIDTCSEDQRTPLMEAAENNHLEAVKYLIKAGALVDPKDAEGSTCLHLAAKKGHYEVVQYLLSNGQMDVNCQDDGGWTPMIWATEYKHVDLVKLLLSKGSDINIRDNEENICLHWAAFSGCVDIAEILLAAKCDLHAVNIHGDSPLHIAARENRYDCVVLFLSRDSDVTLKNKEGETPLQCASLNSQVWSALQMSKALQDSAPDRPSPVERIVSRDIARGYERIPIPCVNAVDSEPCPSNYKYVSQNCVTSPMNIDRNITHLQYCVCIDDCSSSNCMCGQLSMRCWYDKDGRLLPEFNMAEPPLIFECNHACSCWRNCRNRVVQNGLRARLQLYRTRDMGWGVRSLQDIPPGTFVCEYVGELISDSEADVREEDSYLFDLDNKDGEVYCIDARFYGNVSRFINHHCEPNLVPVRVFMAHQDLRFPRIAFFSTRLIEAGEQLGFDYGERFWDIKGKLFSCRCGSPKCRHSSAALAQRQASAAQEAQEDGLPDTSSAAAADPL

3×MBT domain of L3MBTL1 = experiment: Triple SILAC pull-down, 3xMBT/3xMBTD355N ratio (cytoplasmic, nuclear and chromatin fractions of 293T cells); assay type: binding, human; settings: SILAC ratio 3xMBT vs 3xMBTD355N pull-down, 293T cells, all values in log base 2; for 3xMBT/D355N UNC Heavy: experiment with UNC0638 in heavy SILAC media; for 3xMBT/D355N UNC Light: experiment with UNC0638 in light SILAC media;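 on all read-outs here: proteins quantified with MaxQuant, requiring at least two unique peptides and quantification in both label directions, normalized to the mean of proteins from a digested loading control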

| Molecule | Relative to UNC0638 UNC Heavy (G9a and GLP) | Relative to UNC0638 UNC Light (G9a and GLP) | Relative to UNC0638 Average (G9a and GLP) | 3xMBT/D355N UNC Heavy (3×MBT domain of L3MBTL1) | 3xMBT/D355N UNC Light (3×MBT domain of L3MBTL1) |
| --- | --- | --- | --- | --- | --- |
| B1 | 0.03 log base 2 | −0.03 log base 2 | 0.00 log base 2 | 2.04 log base 2 | 0.93 log base 2 |
| B2 | 0.19 log base 2 | −0.24 log base 2 | −0.02 log base 2 | 1.95 log base 2 | 2.83 log base 2 |
| B3 | −0.19 log base 2 | 0.21 log base 2 | 0.01 log base 2 | 2.10 log base 2 | 2.25 log base 2 |
